Laboratory results as given in the supplement of paper PMC10567573.

B1: ADAMTSL2 (parent)
chain: KKPPEESTCFERPCFKWYTSPWSE

Variants of: B1
Assay: protein stability index of a GFP-peptide fusion (GPS, HEK-293T) (PSI 1-6); higher = more stable
Conditions: c terminus: a fixed tail appended
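Note: lentivirally expressed fusions sorted by FACS into six bins by GFP to DsRed ratio, PSI derived from sequencing read proportions per bin multiplied by bin number.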

Row | Variant | protein stability index
1 | KKPPEESTCFERPCFKWYYSPWSE [T19Y] | 1.84
2 | KKPPEESTCFERPCFKWYRSPWSE [T19R] | 2.22
3 | KKPPEESTCFERPCFKWYKSPWSE [T19K] | 2.03
4 | KKPPEESTCFERPCFKWYESPWSE [T19E] | 3.38
5 | KKPPEESTCFERPCFKWYHSPWSE [T19H] | 2.65
6 | KKPPEESTCFERPCFKWYFSPWSE [T19F] | 2.28
7 | KKPPEESTCFERPCFKWYWSPWSE [T19W] | 2.05
8 | KKPPEESTCFERPCFKWYQSPWSE [T19Q] | 1.89
9 | KKPPEESTCFERPCFKWYVSPWSE [T19V] | 2.78
10 | KKPPEESTCFERPCFKWYISPWSE [T19I] | 2.35
11 | KKPPEESTCFERPCFKWYSSPWSE [T19S] | 3.24
12 | KKPPEESTCFERPCFKWYASPWSE [T19A] | 2.28
13 | KKPPEESTCFERPCFKWYGSPWSE [T19G] | 2.82
14 | KKPPEESTCFERPCFKWYDSPWSE [T19D] | 2.65
15 | KKPPEESTCFERPCFKWYMSPWSE [T19M] | 2.2
16 | KKPPEESTCFERPCFKWYPSPWSE [T19P] | 2.86
17 | KKPPEESTCFERPCFKWYNSPWSE [T19N] | 3.43
18 | KKPPEESTCFERPCFKWYLSPWSE [T19L] | 2.73
19 | KKPPEESTCFERPCFKWYCSPWSE [T19C] | 2.13
20 | KKPPEESTCFERPCFKWITSPWSE [Y18I] | 2.15
21 | KKPPEESTCFERPCFKWRTSPWSE [Y18R] | 2.71
22 | KKPPEESTCFERPCFKWPTSPWSE [Y18P] | 3.02
23 | KKPPEESTCFERPCFKWGTSPWSE [Y18G] | 2.99
24 | KKPPEESTCFERPCFKWQTSPWSE [Y18Q] | 2.58

Row | Variant | protein stability index
25 | KKPPEESTCFERPCFKWTTSPWSE [Y18T] | 3
26 | KKPPEESTCFERPCFKWKTSPWSE [Y18K] | 3.04
27 | KKPPEESTCFERPCFKWVTSPWSE [Y18V] | 2.22
28 | KKPPEESTCFERPCFKWFTSPWSE [Y18F] | 1.86
29 | KKPPEESTCFERPCFKWDTSPWSE [Y18D] | 3.48
30 | KKPPEESTCFERPCFKWHTSPWSE [Y18H] | 2.97
31 | KKPPEESTCFERPCFKWLTSPWSE [Y18L] | 2.45
32 | KKPPEESTCFERPCFKWNTSPWSE [Y18N] | 2.81
33 | KKPPEESTCFERPCFKWETSPWSE [Y18E] | 3.15
34 | KKPPEESTCFERPCFKWCTSPWSE [Y18C] | 2.33
35 | KKPPEESTCFERPCFKWMTSPWSE [Y18M] | 2.38
36 | KKPPEESTCFERPCFKWSTSPWSE [Y18S] | 3.18
37 | KKPPEESTCFERPCFKWWTSPWSE [Y18W] | 2.57
38 | KKPPEESTCFERPCFKWYTSPMSE [W22M] | 2.6
39 | KKPPEESTCFERPCFKWYTSPESE [W22E] | 4.18
40 | KKPPEESTCFERPCFKWYTSPFSE [W22F] | 2.98
41 | KKPPEESTCFERPCFKWYTSPSSE [W22S] | 3.61
42 | KKPPEESTCFERPCFKWYTSPQSE [W22Q] | 3.82
43 | KKPPEESTCFERPCFKWYTSPPSE [W22P] | 4
44 | KKPPEESTCFERPCFKWYTSPNSE [W22N] | 3.28
45 | KKPPEESTCFERPCFKWYTSPGSE [W22G] | 3.51
46 | KKPPEESTCFERPCFKWYTSPYSE [W22Y] | 3.05
47 | KKPPEESTCFERPCFKWYTSPCSE [W22C] | 3.35
48 | KKPPEESTCFERPCFKWYTSPASE [W22A] | 4.34

Row | Variant | protein stability index
49 | KKPPEESTCFERPCFKWYTSPLSE [W22L] | 3.07
50 | KKPPEESTCFERPCFKWYTSPTSE [W22T] | 3.97
51 | KKPPEESTCFERPCFKWYTSPRSE [W22R] | 2.95
52 | KKPPEESTCFERPCFKWYTSPISE [W22I] | 3.03
53 | KKPPEESTCFERPCFKWYTSPKSE [W22K] | 3.6
54 | KKPPEESTCFERPCFKWYTSPVSE [W22V] | 3.27
55 | KKPPEESTCFERPCFKWYTSPHSE [W22H] | 3.6
56 | KKPPEESTCFERPCFKWYTSPDSE [W22D] | 3.79
57 | KKPPEESTCFERPCFKWYTRPWSE [S20R] | 2.86
58 | KKPPEESTCFERPCFKWYTPPWSE [S20P] | 2.04
59 | KKPPEESTCFERPCFKWYTGPWSE [S20G] | 2.29
60 | KKPPEESTCFERPCFKWYTQPWSE [S20Q] | 2.35
61 | KKPPEESTCFERPCFKWYTCPWSE [S20C] | 1.99
62 | KKPPEESTCFERPCFKWYTWPWSE [S20W] | 4.33
63 | KKPPEESTCFERPCFKWYTLPWSE [S20L] | 1.95
64 | KKPPEESTCFERPCFKWYTYPWSE [S20Y] | 2.37
65 | KKPPEESTCFERPCFKWYTAPWSE [S20A] | 2.88
66 | KKPPEESTCFERPCFKWYTTPWSE [S20T] | 2.15
67 | KKPPEESTCFERPCFKWYTKPWSE [S20K] | 2.61
68 | KKPPEESTCFERPCFKWYTIPWSE [S20I] | 2.59
69 | KKPPEESTCFERPCFKWYTFPWSE [S20F] | 2.02
70 | KKPPEESTCFERPCFKWYTMPWSE [S20M] | 2.08
71 | KKPPEESTCFERPCFKWYTNPWSE [S20N] | 2.58
72 | KKPPEESTCFERPCFKWYTDPWSE [S20D] | 2.42

Row | Variant | protein stability index
73 | KKPPEESTCFERPCFKWYTVPWSE [S20V] | 1.93
74 | KKPPEESTCFERPCFKWYTEPWSE [S20E] | 2.11
75 | KKPPEESTCFERPCFKWYTHPWSE [S20H] | 2.25
76 | KKPPEESTCFERPCFKWYTSAWSE [P21A] | 2.41
77 | KKPPEESTCFERPCFKWYTSFWSE [P21F] | 1.78
78 | KKPPEESTCFERPCFKWYTSNWSE [P21N] | 2.16
79 | KKPPEESTCFERPCFKWYTSTWSE [P21T] | 2.75
80 | KKPPEESTCFERPCFKWYTSWWSE [P21W] | 1.68
81 | KKPPEESTCFERPCFKWYTSVWSE [P21V] | 2.33
82 | KKPPEESTCFERPCFKWYTSHWSE [P21H] | 2.46
83 | KKPPEESTCFERPCFKWYTSDWSE [P21D] | 3.04
84 | KKPPEESTCFERPCFKWYTSGWSE [P21G] | 2.16
85 | KKPPEESTCFERPCFKWYTSEWSE [P21E] | 2.72
86 | KKPPEESTCFERPCFKWYTSKWSE [P21K] | 2.7
87 | KKPPEESTCFERPCFKWYTSIWSE [P21I] | 2.38
88 | KKPPEESTCFERPCFKWYTSCWSE [P21C] | 2.39
89 | KKPPEESTCFERPCFKWYTSRWSE [P21R] | 2.17
90 | KKPPEESTCFERPCFKWYTSLWSE [P21L] | 2.4
91 | KKPPEESTCFERPCFKWYTSMWSE [P21M] | 1.44
92 | KKPPEESTCFERPCFKWYTSYWSE [P21Y] | 1.73
93 | KKPPEESTCFERPCFKWYTSQWSE [P21Q] | 2.2
94 | KKPPEESTCFERPCFKWYTSSWSE [P21S] | 1.87
